According to paper PMC5018249:

Key:
[1] = target: BG505 SOSIP.D664 (HIV-1 strain BG505); assay: SEC-MALS + other: negative-stain electron microscopy; in-house purified BG505 SOSIP trimers, thawed and analysed
[2] = target: BG505 SOSIP-GT3-PADRE (HIV-1 strain BG505); assay: SEC-MALS; purified immunogen in solution; conditions not given

BG505 SOSIP.D664 (domain or fragment)
stoichiometry N [1]: 3

BG505 SOSIP-GT3-PADRE
stoichiometry N [2]: 3
